Measurements: US20230079439A1 (University of California, published 2023)
Numbered stars: 1 amine (or outer) side, 2 acyl side, 3 side chain; on linkers, the order of the positions; unused ones are H or OH. Suc = O=C(CCC(=O)[*:2])[*:1]

Target: neurexins (NXs) located on the plasma membrane of INS-1E cells (rat)
Test: cell-based or functional assay

**Q.** How did the “EC50 of the increase of GSIS in INS-1E cells” value turn out when {PEG2000-Suc}-QQGEFLNYD-NH2 (also: dimer of two HSA-28 monomers bridged via PEG2000) was run?
**A.** The value was 32 µM.
